Laboratory results taken from publication PMC6224480, “Insights into Kinesin-1 Activation from the Crystal Structure of KLC2 Bound to JIP3” (Structure(London, England:1993), 2018).

How the values were obtained:
[1] = system: wild-type and mutant KLC2^TPR-myc; test: ITC with wild-type and/or TPR1-mutant KLC2^TPR-myc (collective statements); format: binding, murine; details: all three mutations in TPR1 of KLC2^TPR-myc; ITC
Method: The Trp-JIP3^LZ protein used for CD and ITC experiments was prepared as described above for the JIP3^LZ, with the following modifications. Following 3C cleavage, contaminating GST3C was removed by incubation of the eluate with fresh, pre-equilibrated glutathione sepharose 4B resin for 2 hours at room temperature. The Trp-JIP3^LZ was then further purified by size exclusion chromatography using a Superdex 75 16/600 column equilibrated in 100 mM NaCl, 25 mM HEPES, 1 mM TCEP (final pH 7.5). Wild-type/mutant KLC2^TPR-myc samples used for CD and ITC experiments were prepared as described above the KLC2^TPR used in crystallographic studies. The Trp-JIP3^LZ and KLC2^TPR-myc samples used in the fluorescence anisotropy-based binding competition assays were prepared as for those used in the CD and ITC studies, but the final size-exclusion step was performed in 100 mM NaCl, 25 mM HEPES, 5mM MgCl2, 1 mM TCEP (final pH 7.5).
(§1) To study binding of the Trp-JIP3^LZ and FITC-CSTN-WD2 peptide to wild-type and mutant KLC2^TPR-myc, the recombinant proteins were prepared by size exclusion chromatography in 0.1 M NaCl, 25 mM HEPES, 1 mM TCEP, final pH 7.5. […] The peptide concentration was determined by measuring the absorbance at 483 nm and using a molar extinction coefficient of 68,000 M^-1cm^-1. […] The resulting isotherms were analysed in SEDPHAT. […]

[2] = CD spectroscopy; format: physicochemical; details: 20°C, 20 mM potassium phosphate pH 7.5, 0.5 mM DTT
Method: All CD spectra were recorded on a Chirascan CD spectrometer (Applied Photophysics) in quartz cuvettes with a 0.1 cm path length. Data were recorded at 20°C between 260 - 180 nm in 1 nm increments and a 2 nm bandwidth over an average of two scans. The KLC2^TPR-myc and Trp-JIP3^LZ proteins were dialysed extensively into 20 mM potassium phosphate pH 7.5, 0.5 mM DTT. Spectra were collected from KLC2^TPR-myc samples at concentrations of 0.29, 0.14 and 0.086 mg/ml. Trp-JIP3^LZ spectra were collected at 0.15, 0.074 and 0.044 mg/ml. One spectrum was recorded for each sample at each concentration and background-corrected by subtraction of a buffer-only spectrum. Corrected spectra were converted to units of mean residue ellipticity and deconvolved using the Dichroweb server ([Whitmore and Wallace, 2008]). KLC2^TPR-myc and Trp-JIP3^LZ spectra were analysed using the SELCON3 and CONTIN algorithms, respectively, using reference dataset set 4 ([Sreerama et al., 1999], [van Stokkum et al., 1990]). For each protein, the mean percentage of each secondary structure type, and the corresponding standard deviation, was calculated from the values obtained from the three concentrations. The secondary structure content for KLC2^TPR-myc and Trp-JIP3^LZ were calculated using the KLC2^TPR:JIP3^LZ crystal structure using the STRIDE server (http://webclu.bio.wzw.tum.de/cgi-bin/stride/stridecgi.py) ([Frishman and Argos, 1995]).

[3] = system: KLC2^TPR-myc Arg^312Glu (R312E); test: ITC of Trp-JIP3^LZ into R312E KLC2^TPR-myc; format: binding, murine
From the text: The KLC2^TPR construct used in this work comprised murine KLC2 residues 191-480, which is similar to those used in previous studies ([Nguyen et al., 2017], [Zhu et al., 2012]) but with a slightly longer N-terminal region to include residues 191-194, which are very highly conserved in Bilaterian KLCs. To construct the pMW-His6-SUMO-KLC2^TPR vector, the sequence encoding KLC2^TPR (residues 191-480) was amplified by PCR from a murine template ([Dodding et al., 2011]) and cloned into the NotI/EcoRI sites of pMW his-SUMO. […]
The Trp-JIP3^LZ protein used for CD and ITC experiments was prepared as described above for the JIP3^LZ, with the following modifications. […] The Trp-JIP3^LZ and KLC2^TPR-myc samples used in the fluorescence anisotropy-based binding competition assays were prepared as for those used in the CD and ITC studies, but the final size-exclusion step was performed in 100 mM NaCl, 25 mM HEPES, 5mM MgCl2, 1 mM TCEP (final pH 7.5).
as §1

[4] = target: T1, KLC2^TPR-myc (Mus musculus, UniProt O88448); test: Fluorescence anisotropy-based binding competition against FITC-LFP motif peptide; design: species or system murine; details: FITC-LFP peptide 300 nM, KLC2^TPR-myc 21 μM, Trp-JIP3^LZ two independent experiments, CSTN-WD1 one experiment
T1 construct: comprised murine KLC2 residues 191-480; His6-SUMO (N, cleaved yes); made in house; host or cells: E. coli BL21(DE3) Rosetta
T1 sequence (O88448 191-480): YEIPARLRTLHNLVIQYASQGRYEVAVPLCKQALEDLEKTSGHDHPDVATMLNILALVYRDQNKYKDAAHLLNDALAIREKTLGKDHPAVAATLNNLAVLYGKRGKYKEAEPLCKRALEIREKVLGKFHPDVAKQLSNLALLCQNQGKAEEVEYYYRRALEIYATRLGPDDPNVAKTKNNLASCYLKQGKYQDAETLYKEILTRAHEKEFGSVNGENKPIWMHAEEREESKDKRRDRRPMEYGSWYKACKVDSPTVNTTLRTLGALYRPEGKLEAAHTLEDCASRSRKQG
From the text: Kinesin-1 activation by JIP3 requires JIP3^LZ binding to KLC^TPR ([Watt et al., 2015]). How does JIP3^LZ binding to the KLC^TPR relieve KLC regulation of the kinesin-1 molecule? Tryptophan-acidic cargoes activate kinesin-1 by releasing the KLC LFP motif from the KLC^TPR ([Yip et al., 2016]). […] We therefore wondered whether JIP3^LZ binding to the KLC2^TPR allosterically regulates interactions between KLC2^TPR and the LFP motif. We investigated this using an in vitro, fluorescence anisotropy-based binding competition assay with purified proteins and peptides ([Yip et al., 2016]). […] Thus, JIP3 activates kinesin-1 by a different mechanism to tryptophan-acidic cargoes.
The binding affinity between the FITC-labelled LFP-motif peptide and the KLC2^TPR-myc was measured essentially as described previously ([Yip et al., 2016]). FITC-labelled LFP motif peptide (300 nM) was incubated with 2-fold dilutions of KLC2^TPR-myc in assay buffer (0.1 M NaCl, 25 mM HEPES, 5 mM MgCl2, 1 mM TCEP, final pH 7.5) in triplicate in 384-well plates, for 1 hour at room temperature. Fluorescence measurements were recorded on a TecanSpark plate reader at excitation and emission wavelengths of 488 nm and 535 nm respectively. Fluorescence anisotropy values were calculated at each KLC2^TPR-myc concentration and the data were fitted with a fixed-slope dose response curve in Prism (GraphPad). […]

effect of the three TPR1 mutations on binding [1]: completely abrogated binding
binding to Arg^312Glu mutant [3]: retained the ability to bind
effect on binding of KLC2^TPR-myc to FITC-labeled LFP motif peptide [4]: no effect
B1: Trp-JIP3^LZ: JIP3^LZ construct N-terminally fused to a tryptophan residue (protein)
chain: WMGKEVGNLLLENSQLLETKNALNVVKNDLIAKVDQLSGEQEVLKGELEAAKQAKVKLENRIKELEEELKRV
modifications: left off: GST, N-terminal, cleaved
notes: JIP3^LZ construct N-terminally fused to a tryptophan residue
mean α-helical content ([2]; CONTIN deconvolution, mean and SD from three concentrations (0.15, 0.074, 0.044 mg/ml)): 59% ± 3%
ratio of ellipticities at 222 and 208 nm ([2]; n = 3): 0.88 ± 0.01
